Source: patent EP2164866B1

Molecular target: epidermal growth factor receptor (EGFR) on EGFR positive U87 cells (UniProt P00533)
Assay: FACS saturation binding to EGFR receptor

Row | Half saturation [nM] | Bmax (RFU) | Substance
1 | 1.8 | – | Anti-EGFR-Angiopep-2 conjugate (EGFR antibody monoclonal 528 cross-linked to Angiopep-2 with SATA)
2 | 1.7 | 23.6 | EGFR antibody (monoclonal 528 available from ATCC)
